Reference: patent publication US11649275B2, “Dual agonist fusion proteins” (Duke University, priority 2018, dated 2023)
Entries after “also recorded” stand apart in the source; their conditions may differ.

Tests used:
[1] = LCST phase behavior characterization (turbidity OD350 vs temperature); assay type: physicochemical
Protocol: Phase behavior characterization: The lower critical solution temperature (LCST) phase transition behavior of ELP fusion proteins was evaluated by monitoring the OD350 of solutions in PBS as a function of temperature on a Cary 300 UV-visible spectrophotometer equipped with a multicell thermoelectric temperature controller (Agilent Technologies, Santa Clara, Calif.). Heating and cooling were set to a rate of 1° C./min. The Tt was defined as the temperature at which the optical density reached 50% of its maximal value.

db/db mice [2] = test: Short-term co-treatment pilot study, 48 h after single s.c. injection; assay type: in vivo; settings: 48 h post-injection, 1000 nmol/kg s.c.
Protocol: (§1) Animals: In vivo studies were conducted in accordance with the AAALAC-accredited Duke Institutional Animal Care and Use Committee. 5-week-old B6.BKS(D)-Lepr^db/J (“db/db”) male mice were purchased from Jackson Laboratory (Bar Harbor, Me.) and maintained on a 12 h/12 h light/dark cycle with ad libitum access to food (LabDiet 5053) and water. Animals were group-housed and allowed 1-week acclimation before stratification into control and treatment groups based on baseline ambient blood glucose levels and body weights.
(§2) ELP fusion treatments: ELP fusion proteins were administered at 150-200 μM concentration via injection into the subcutaneous (s.c.) space on the hind flank. Animals received either a single s.c. injection for short-term studies or weekly s.c. injections for chronic studies. The “1:1 mixture” treatment group received a single injection containing an equimolar mixture of GLP1-ELP and ELP-FGF21, with the indicated dose referring to the dose of each respective fusion in the mixture. Vehicle control refers to PBS.
(§3) Ambient blood glucose measurements: Blood glucose levels were measured from a tail vein puncture with an AlphaTRAK 2 Blood Glucose Meter (Zoetis, Parsippany-Troy Hills, N.J.) every 24 h, 1-2 h following onset of the light cycle. […] Areas under the curve (AUCs) were calculated with GraphPad Prism 8 software using the trapezoidal rule and setting a Y=0 baseline. […]

db/db mice [3] = test: Chronic dosing study, weekly s.c. for four weeks (GTT, % HbA1c, body weight, food intake); assay type: in vivo; settings: for GTT AUC: i.p. glucose tolerance test 3 days after the first dosing cycle; for fasting plasma insulin: prior to glucose challenge; for change in % HbA1c from days 0 to 27: weekly 1000 nmol/kg s.c. for four weeks; for weight gain on chronic treatment: weekly 1000 nmol/kg s.c.
Protocol: as §1, §2
Food Intake: For food intake studies, animals were group-housed 4 per cage, and food pellets were weighed every 1-2 days. Total cage food intake was calculated for each time increment, averaged per animal, and summed over the course of the study to yield a cumulative food intake per mouse. N=8 treatment groups were divided into 2 cages, allowing for an n=2 food intake standard error calculation.

GLP-1R = target: T1, GLP-1R (Homo sapiens, UniProt P43220); test: cAMP production assay (GLP-1R agonism, HEK293 cells with cAMP-inducible luciferase reporter); assay type: cell-based; settings: fusion of GLP1 to ELP or ELP-FGF21
T1 construct: expressed in transfected cells; host or cells: HEK293
T1 sequence (P43220 24-463, species assumed): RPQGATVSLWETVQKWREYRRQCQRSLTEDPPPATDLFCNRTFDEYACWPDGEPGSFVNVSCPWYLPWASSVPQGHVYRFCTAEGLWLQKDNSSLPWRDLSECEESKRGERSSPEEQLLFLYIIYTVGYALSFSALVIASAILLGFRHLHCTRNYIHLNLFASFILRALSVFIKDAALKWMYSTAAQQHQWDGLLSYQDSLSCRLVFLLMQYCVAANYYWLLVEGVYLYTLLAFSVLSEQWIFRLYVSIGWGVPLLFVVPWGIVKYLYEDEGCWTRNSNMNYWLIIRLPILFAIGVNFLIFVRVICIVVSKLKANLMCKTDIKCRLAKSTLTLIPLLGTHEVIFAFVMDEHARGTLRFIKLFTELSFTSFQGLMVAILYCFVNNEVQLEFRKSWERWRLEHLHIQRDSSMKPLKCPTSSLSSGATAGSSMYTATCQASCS
Protocol: This time, however, the intended cleavage substrate was a GA leader instead of the AA leader. […] Data were fit to a three-parameter dose-response curve to determine EC50s.
Cells were seeded at 1×10^5 cells/cm^2 into 96 well plates and adhered overnight. […] Luminescence of the supernatant samples were measured on a Victor X3 Plate Reader (Perkin Elmer) and normalized to zero drug treatment control wells. Data were fit to a three-parameter dose-response curve to determine EC50s using GraphPad Prism 8 software.

db/db mice [4] = test: GLP1-ELP control, single s.c. injection, glycemia and body weight for 10 days; assay type: in vivo; settings: 1000 nmol/kg single s.c.
Protocol: as §1, §2, §3

[5] = Pharmacokinetic study of radiolabeled ELP fusion depots after s.c. injection; assay type: in vivo, mice; settings: for Cmax / TMAX / AUC / T1/2, ABS (absorption half-life): db/db mice, 1000 nmol/kg; for Cmax / TMAX / AUC / T1/2, ABS (absorption half-life) / steady plasma drug levels: single s.c. injection; for Cmax / TMAX: radiolabeled construct; for AUC: extrapolated to 16 days post-administration; for T1/2, ABS (absorption half-life): from slope of terminal linear regression; for R-squared, first-order model / R-squared, zero-order model / Regression model, first-order elimination (Log(y)): fit to terminal portion of plasma concentration vs time data; for steady plasma drug levels: out to day 10 / for at least 10 days
Protocol: Pharmacokinetic studies: Tyrosine residues on GLP1-ELP, ELP-FGF21, or GLP1-ELP-FGF21 fusion proteins were reacted with Na^125I radionuclide (Perkin Elmer) using Pierce Pre-Coated Iodination Tubes (Thermo Fisher Scientific) and the indirect method for iodination. Radiolabeled protein was purified from unreacted radionuclide with Zeba Spin Desalting Columns (Thermo Fisher Scientific). Activities of radiolabeled constructs were measured with an Atomlab 400 Dose Calibrator (Biodex, Shirley, N.Y.) and correlated to protein concentration. Mice received a single s.c. injection of radiolabeled fusion, and 10 μL blood samples were collected at frequent time points from the tail vein and stored at room temperature until radioactivity quantification. Sample counts were measured at the end of the study on a Wallac Wizard 1480 Automatic Gamma Counter (Perkin Elmer). An activity vs. count standard curve was used to convert sample counts to activities, and subsequently to moles of drug.
Pharmacokinetic analysis: The maximum serum concentration (Cmax) was recorded as observed, as well as time to reach Cmax (tmax). […] Absorption half-life (t1/2, abs) was estimated from the slope of the linear regression curve. When a drug administered at an extravascular site yields a terminal half-life greater than that resulting from an i.v. bolus, the terminal half-life reflects the absorption half-life.

db/db mice [6] = test: Hypoglycemia safety check (16 h extended fast, glucose-stimulated insulin in GTT)
Protocol: Glucose tolerance test: Animals were fasted at the onset of the light cycle for 5 h with ad libitum access to water, then injected via intraperitoneal (i.p.) with 0.75 g/kg D-glucose. Blood glucose levels were measured from a tail snip with a Contour Blood Glucose Meter (Bayer, Leverkusen, Germany) at t=0 (before glucose injection), 10, 20, 30, 60, 90, and 120 min.
Extended fast blood glucose measurements: Animals were fasted for 16 h starting at 4:00 PM with ad libitum access to water, after which blood glucose levels were measured from the tail vein as described for ambient blood glucose measurements.
Blood parameters: 50 μL blood samples were collected from the tail veins following a 6 h fast using Microvette EDTA coated tubes (Sarstedt), which were placed on ice until centrifugation at 5000 rcf at 4° C. for 15 min. Plasma supernatants were stored at −80° C. until time of assay. Plasma insulin levels were quantified using the Mercodia Mouse Insulin ELISA, according to the manufacturers' instructions.

db/db mice [7] = test: Single s.c. injection dose study of GLP1-ELP-FGF21 (ambient blood glucose, body weight); assay type: in vivo
Protocol: as §1, §2
Ambient blood glucose measurements: Blood glucose levels were measured from a tail vein puncture with an AlphaTRAK 2 Blood Glucose Meter (Zoetis, Parsippany-Troy Hills, N.J.) every 24 h, 1-2 h following onset of the light cycle. Data are presented as either raw values, or as a magnitude change from a mean baseline established from three independent measurements collected prior to treatment. Areas under the curve (AUCs) were calculated with GraphPad Prism 8 software using the trapezoidal rule and setting a Y=0 baseline. Treatment group AUCs were normalized to the vehicle-treated group where indicated.

[8] = 5 h fast, 3 days after the first dosing cycle, 1000 nmol/kg s.c.
[9] = 3 days after the first dosing cycle

Molecule | fasting blood glucose levels (db/db mice [3]; [8]) | food intake (db/db mice [3]; four-week treatment period) | GTT AUC (db/db mice [3]) | fasting plasma insulin (db/db mice [3]; [9]) | change in % HbA1c from days 0 to 27 (db/db mice [3]) | weight gain on chronic treatment (db/db mice [3]; four-week treatment period) | Cmax [5] | TMAX [5] | AUC [5] | T1/2, ABS (absorption half-life) [5] | R-squared, first-order model [5] | R-squared, zero-order model [5] | Regression model, first-order elimination (Log(y)) [5] | steady plasma drug levels [5] | other results
GLP1-ELP: Single agonist control: GLP-1 analog fused to ELP of 120 VPGXaaG repeats, 4:1 Val:Ala; SEQ ID NO:16 (protein) AAHGEGTFTSDVSSYLEEQAAKEFIAWLVKGAGVGVPGVGVPGAGVPGVGVPGVGVPGVGVPGVGVPGAGVPGVGVPGVGVPGVGVPGVGVPGAGVPGVGVPGVGVPGVGVPGVGVPGAGVPGVGVPGVGVPGVGVPGVGVPGAGVPGVGVPGVGVPGVGVPGVGVPGAGVPGVGVPGVGVPGVGVPGVGVPGAGVPGVGVPGVGVPGVGVPGVGVPGAGVPGVGVPGVGVPGVGVPGVGVPGAGVPGVGVPGVGVPGVGVPGVGVPGAGVPGVGVPGVGVPGVGVPGVGVPGAGVPGVGVPGVGVPGVGVPGVGVPGAGVPGVGVPGVGVPGVGVPGVGVPGAGVPGVGVPGVGVPGVGVPGVGVPGAGVPGVGVPGVGVPGVGVPGVGVPGAGVPGVGVPGVGVPGVGVPGVGVPGAGVPGVGVPGVGVPGVGVPGVGVPGAGVPGVGVPGVGVPGVGVPGVGVPGAGVPGVGVPGVGVPGVGVPGVGVPGAGVPGVGVPGVGVPGVGVPGVGVPGAGVPGVGVPGVGVPGVGVPGVGVPGAGVPGVGVPGVGVPGVGVPGVGVPGAGVPGVGVPGVGVPGVGVPGVGVPGAGVPGVGVPGVGVPGVGVPGVGVPGAGVPGVGVPGVGVPG | 167 ± 11 mg/dL | significant reduction in food intake | outperformed ELP-FGF21 in improving glucose tolerance | significant increase in fasting plasma insulin | +1.0±0.2% | 25.3±1.9% | 369 ± 14 nM | 4.8 ± 0.7 H | 2023 ± 67 NM*D | 20.8 ± 3.2 D | 0.61 | 0.58 | Log(y) = −0.01628x + 2.263 | around 100 nM | Tt (transition temperature) ([1]; PBS, injection-relevant concentration of 200 μM): 27.5 °C; body weight, % change from pre-injection weight (db/db mice [2]): −0.2±0.6%; % HbA1c elevation relative to control (db/db mice [3]; four-week study): significantly reduced % HbA1c elevation relative to control; effect on body weight / weight gain compared to vehicle (db/db mice [3]; four-week treatment period): significantly inhibited weight gain; increase in GLP-1R EC50 compared to native GLP-1 (GLP-1R): approximately ten-fold; also recorded: ten-fold increase; weight gain compared to control mice (db/db mice [4]; daily for 10 days): significantly inhibited weight gain; ambient blood glucose levels after treatment (db/db mice [4]; reduced from >300 mg/dL for the duration of the 10 day study): < 200 mg/dL; plasma levels of component of 1:1 mixed depot ([5]; 1:1 mixture, 1000 nmol/kg each, steady for 7 days): around 100 nM
GLP1-ELP-FGF21: Fusion of GLP-1 analog, ELP (120 VPGXaaG repeats, 4:1 Val:Ala) and mutated murine FGF21; SEQ ID NO:15 (protein) AAHGEGTFTSDVSSYLEEQAAKEFIAWLVKGAGVGVPGVGVPGAGVPGVGVPGVGVPGVGVPGVGVPGAGVPGVGVPGVGVPGVGVPGVGVPGAGVPGVGVPGVGVPGVGVPGVGVPGAGVPGVGVPGVGVPGVGVPGVGVPGAGVPGVGVPGVGVPGVGVPGVGVPGAGVPGVGVPGVGVPGVGVPGVGVPGAGVPGVGVPGVGVPGVGVPGVGVPGAGVPGVGVPGVGVPGVGVPGVGVPGAGVPGVGVPGVGVPGVGVPGVGVPGAGVPGVGVPGVGVPGVGVPGVGVPGAGVPGVGVPGVGVPGVGVPGVGVPGAGVPGVGVPGVGVPGVGVPGVGVPGAGVPGVGVPGVGVPGVGVPGVGVPGAGVPGVGVPGVGVPGVGVPGVGVPGAGVPGVGVPGVGVPGVGVPGVGVPGAGVPGVGVPGVGVPGVGVPGVGVPGAGVPGVGVPGVGVPGVGVPGVGVPGAGVPGVGVPGVGVPGVGVPGVGVPGAGVPGVGVPGVGVPGVGVPGVGVPGAGVPGVGVPGVGVPGVGVPGVGVPGAGVPGVGVPGVGVPGVGVPGVGVPGAGVPGVGVPGVGVPGVGVPGVGVPGAGVPGVGVPGVGVPGVGVPGVGVPGAGVPGVGVPGVGVPGAYPIPDSSPLLQFGGQVRQRYLYTDDDQDTEAHLEIREDGTVVGAAHRSPESLLELKALKPGVIQILGVKASRFLCQQPDGALYGSPHFDPEACSFRERLLEDGYNVYQSEAHGLPLRLPQKDSPNQDATSWGPVRFLPMPGLLHEPQDQAGFLPPEPPDVGSSDPLSMVEGSQGRSPSYASG | 125 ± 6.0 mg/dL | consuming chow at an equivalent rate to GLP1-ELP | significantly decreased GTT AUC compared to GLP1-ELP or ELP-FGF21 | without a significant elevation in insulin | +0.3±0.2% | 14.1±1.6% | 411 ± 51 nM | 10.5 ± 1.5 H | 1961 ± 59 NM*D | 7.6 ± 1.1 D | 0.85 | 0.81 | Log(y) = −0.0416x + 2.431 | ~100 nM | blood glucose levels after overnight 16 h fast (db/db mice [6]; 1000 nmol/kg s.c., fast begun 48 h post-treatment, threshold of hypoglycemia): 50 to 55 mg/dL; ad libitum-fed blood glucose levels (db/db mice [6]; 48 h post-treatment, 1000 nmol/kg s.c., vs vehicle): significant reductions; blood glucose levels during recovery (return to pre-injection baselines) (db/db mice [6]; t=60 to t=120 min post-challenge in GTT): -100 mg/dL; body weight % change on day 7 post-treatment (db/db mice [7]; 750 nmol/kg): −2.6±3.3%; blood glucose vs. time AUC (db/db mice [7]; 750 nmol/kg and 1000 nmol/kg, single s.c. injection, vs vehicle): Significant reductions; body weight % change on day 7 post-treatment (db/db mice [7]; 1000 nmol/kg): −2.7±3.7%; ambient blood glucose levels after treatment (db/db mice [7]; all doses, reduced from >300 mg/dL): < 150 mg/dL; persistence of blood glucose effects (db/db mice [7]; highest dose tested, 1000 nmol/kg): 8 days; persistence of blood glucose effects (db/db mice [7]; lowest dose, 250 nmol/kg): 4 days; duration of therapeutic drug levels and protection from hyperglycemia and weight gain (db/db mice [7]; single injection): > 7 days; reduction of body weights (maximum) (db/db mice [7]; two highest doses tested (750 and 1000 nmol/kg)): up to 7.2±2.3%; reversibility of phase change behavior ([1]; temperature ramped up to 37° C., then down to 20° C.): reversible; fasting blood glucose levels (db/db mice [3]; GTT 3 days following the final treatment): 92.7 ± 8.3 mg/dL; negative net weight gain values persisting through (db/db mice [3]; weekly dosing): 12 days; absorption half-life ([5]; linear regression fit to terminal portion of the data, 1000 nmol/kg s.c.): 7.6 ± 1.1 days
